From publication PMC3005890 come the findings set out here.

This test has as its target teichuronic acid synthetase (TUAS) subunit B, 52.5 kDa (Micrococcus luteus (endogenous in ATCC 4698)). The test can be described thus: native gel or EMSA; endogenous TUAS co-purified from detergent-solubilised membranes; the active ~440 kDa band on a 3-12% native gradient polyacrylamide gel is separated by 9.5% SDS-PAGE into the 54 kDa and 52.5 kDa subunits; the complex carries lipids and pigments.

Turning to “teichuronic acid synthetase (TUAS) subunit A, 54 kDa (natural protein)”, the stoichiometry N stood at 8.
